Where two headings read alike, the source gives them in different places.
T1: human CD45 on cells (PBMC, whole blood cells, macrophages, leukaemia and lymphoma cell lines) (human, UniProt P08575 26-1306)
T1 sequence: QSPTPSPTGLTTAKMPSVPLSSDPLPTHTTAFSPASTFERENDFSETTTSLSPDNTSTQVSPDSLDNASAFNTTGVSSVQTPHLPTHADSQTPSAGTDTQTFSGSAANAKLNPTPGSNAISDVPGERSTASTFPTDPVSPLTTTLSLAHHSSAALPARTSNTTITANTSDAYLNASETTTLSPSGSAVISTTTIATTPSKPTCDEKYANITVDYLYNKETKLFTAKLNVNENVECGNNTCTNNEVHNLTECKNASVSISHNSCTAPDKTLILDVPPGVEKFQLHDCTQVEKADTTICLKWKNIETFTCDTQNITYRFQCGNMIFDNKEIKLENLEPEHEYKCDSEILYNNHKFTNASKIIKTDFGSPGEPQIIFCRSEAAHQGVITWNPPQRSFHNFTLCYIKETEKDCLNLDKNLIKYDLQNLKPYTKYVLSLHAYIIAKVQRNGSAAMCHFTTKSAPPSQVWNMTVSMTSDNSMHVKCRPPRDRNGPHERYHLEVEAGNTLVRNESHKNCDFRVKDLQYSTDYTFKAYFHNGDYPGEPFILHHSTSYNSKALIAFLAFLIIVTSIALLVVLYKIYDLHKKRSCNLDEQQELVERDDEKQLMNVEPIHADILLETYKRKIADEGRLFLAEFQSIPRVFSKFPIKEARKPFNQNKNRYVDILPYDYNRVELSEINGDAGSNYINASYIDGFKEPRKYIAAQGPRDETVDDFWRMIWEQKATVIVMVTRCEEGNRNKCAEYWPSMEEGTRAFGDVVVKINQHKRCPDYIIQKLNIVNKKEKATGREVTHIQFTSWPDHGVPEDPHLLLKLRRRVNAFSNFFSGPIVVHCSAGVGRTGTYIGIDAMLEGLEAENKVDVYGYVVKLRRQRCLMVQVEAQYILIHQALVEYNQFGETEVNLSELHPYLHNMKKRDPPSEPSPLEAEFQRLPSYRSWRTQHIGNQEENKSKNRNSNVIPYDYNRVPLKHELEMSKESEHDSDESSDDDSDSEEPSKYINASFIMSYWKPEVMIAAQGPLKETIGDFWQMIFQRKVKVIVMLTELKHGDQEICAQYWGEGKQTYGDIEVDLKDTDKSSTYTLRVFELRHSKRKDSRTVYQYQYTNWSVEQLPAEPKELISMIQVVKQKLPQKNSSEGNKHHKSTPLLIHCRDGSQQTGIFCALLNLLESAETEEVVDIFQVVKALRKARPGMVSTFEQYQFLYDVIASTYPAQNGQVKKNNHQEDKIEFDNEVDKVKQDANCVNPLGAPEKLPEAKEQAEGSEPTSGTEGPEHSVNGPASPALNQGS

T2: CD45 D1-D4 (Homo sapiens, UniProt P08575)
T2 construct: extracellular domain of CD45 (UniProtKB—P08575, residue positions 225-573); TEV cleavage site (C); 10-His tag (C); made in house; host or cells: HEK293
T2 sequence (P08575 225-573): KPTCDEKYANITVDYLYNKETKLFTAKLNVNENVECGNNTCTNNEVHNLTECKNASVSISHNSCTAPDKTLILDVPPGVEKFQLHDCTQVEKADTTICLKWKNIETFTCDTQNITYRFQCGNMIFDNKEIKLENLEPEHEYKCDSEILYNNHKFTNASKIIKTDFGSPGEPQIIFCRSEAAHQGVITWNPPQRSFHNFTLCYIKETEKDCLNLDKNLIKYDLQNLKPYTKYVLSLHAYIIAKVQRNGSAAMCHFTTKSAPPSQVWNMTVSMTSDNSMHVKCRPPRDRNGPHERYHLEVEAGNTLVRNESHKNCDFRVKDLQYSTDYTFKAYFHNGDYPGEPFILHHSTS


Key:
[1] = target: T1, human CD45 on cells (PBMC, whole blood …); assay: cell-based or functional assay
CD45 D1-D4 = target: T2, CD45 D1-D4; assay: Surface plasmon resonance (Biacore) affinity of Fabs; type: binding; conditions: 25° C.; for Ka: association constant, CD45 D1-D4 50 nM to 0.05 nM
Description: Surface plasmon resonance (SPR) experiments were carried out at 25° C. on a Biacore 3000 system using CM5 sensor chips (GE Healthcare Bio-Sciences AB, Uppsala, Sweden) and HBS-EP running buffer (10 mM HEPES, 150 mM NaCl, EDTA 2 mM and 0.005% (v/v) P20, pH 7.4). 4133 rabbit Fab and 6294 mouse Fab were captured using polyclonal goat F(ab)2 fragment anti-rabbit F(ab)2, (Jackson Labs product code #111-006-047) and polyclonal goat F(ab)2 fragment anti-mouse F(ab)2, (Jackson Labs product code #115-006-072), respectively. Covalent immobilization of the capturing antibody was achieved by standard amine coupling chemistry to a level of 1000-3000 response units (RU).
CD45 D1-D4 was titrated over the captured purified antibody from 50 nM to 0.05 nM. Each assay cycle consisted of first capturing the antibody Fab fragment using a 1-min injection at a flow rate of 10 μl/min, followed by an association phase consisting of a 3-min injection of CD45 D1-D4 at a flow rate of 30 μl/min. The subsequent dissociation phase was monitored for at least 3 min. After each cycle, the capture surface was regenerated at a flow rate of 10 μl/min with a 1-min injection of 40 mM HCl followed by a 30-sec injection of 5 mM NaOH. A blank flow-cell was used for reference subtraction and buffer-blank injections were included to subtract instrument noise and drift. Kinetic parameters were determined using BIAevaluation software (version 4.1.1).

EC50 of reduction of lymphocytes in PBMC, 24 h (UCB Cone-802) [1]	EC50 of reduction of lymphocytes in PBMC, 24 h (UCB Cone-811) [1]	Kd (CD45 D1-D4; SPR, read-out: affinity)	Kd (CD45 D1-D4; affinity constant, captured Fab, read-out: KD)	Ka (CD45 D1-D4; captured Fab)	Dissociation rate constant koff (CD45 D1-D4; captured Fab)	Molecule
90 pM	170 pM	–	–	–	–	4133-6294 IgG4P FALA Knob-in-Hole (bispecific antibody) heavy 1: QEQLVESGGGLVQPEGSLTLTCTASGFSFSGNYYMCWVRQAPGKGLEWIGCLYTGSSGSTYYASWAKGRFTISKTSSTTVTLQMTSLTAADTATYFCARDLGYEIDGYGGLWGQGTLVTVSSASTKGPSVFPLAPCSRSTSESTAALGCLVKDYFPEPVTVSWNSGALTSGVHTFPAVLQSSGLYSLSSVVTVPSSSLGTKTYTCNVDHKPSNTKVDKRVESKYGPPCPPCPSAPEAAGGPSVFLFPPKPKDTLMISRTPEVTCVVVDVSQEDPEVQFNWYVDGVEVHNAKTKPREEQFNSTYRVVSVLTVLHQDWLNGKEYKCKVSNKGLPSSIEKTISKAKTGQPREPQVYTLPPSQEEMTKNQVSLWCLVKGFYPSDIAVEWESNGQPENNYKTTPPVLDSDGSFFLYSRLTVDKSRWQEGNVFSCSVMHEALHNHYTQKSLSLSLGK heavy 2: EVQLVESGAELARPGASVKMSCKASGYTFTSYTMHWVKQRPGQGLEWIGYINPSSGYTEYNQKFKDKTTLTADKSSSTAYLQLSSLTSEDSAVYYCARVGDGFYPSWLAYWGQGTLVTVSSASTKGPSVFPLAPCSRSTSESTAALGCLVKDYFPEPVTVSWNSGALTSGVHTFPAVLQSSGLYSLSSVVTVPSSSLGTKTYTCNVDHKPSNTKVDKRVESKYGPPCPPCPAPEAAGGPSVFLFPPKPKDTLMISRTPEVTCVVVDVSQEDPEVQFNWYVDGVEVHNAKTKPREEQFNSTYRVVSVLTVLHQDWLNGKEYKCKVSNKGLPSSIEKTISKAKGQPREPQVYTLPPSQEEMTKNQVSLSCAVKGFYPSDIAVEWESNGQPENNYKTTPPVLDSDGSFFLVSRLTVDKSRWQEGNVFSCSVMHEALHNHYTQKSLSLSLGK light 1: AQVLTQTPSPVSAVVGGTVSISCQASQSVYNNNNLSWYQQKPGQPPKLLIYDASKLASGVPSRFKGSGSGTQFTLTISGVQCDDAATYYCLGGYYSSGWYFAFGGGTKVVVKRTVAAPSVFIFPPSDEQLKSGTASVVCLLNNFYPREAKVQWKVDNALQSGNSQESVTEQDSKDSTYSLSSTLTLSKADYEKHKVYACEVTHQGLSSPVTKSFNRGEC light 2: DIQMTQSPKFLLVSAGDRVTITCKASQSVRNDVAWYQQKPGQSPKLLIFYASKRYTGVPDRFTGSGYGTDFTFTISTVQAEDLAVYFCQQDYSSPTTFGGGTKLEIKRTVAAPSVFIFPPSDEQLKSGTASVVCLLNNFYPREAKVQWKVDNALQSGNSQESVTEQDSKDSTYSLSSTLTLSKADYEKHKVYACEVTHQGLSSPVTKSFNRGEC
–	–	61000 pM	61000 pM	570000 M⁻¹ s⁻¹	0.035 s⁻¹	4133 Fab: Fab fragment of rabbit anti-CD45 antibody 4133 (antibody) heavy: QEQLVESGGGLVQPEGSLTLTCTASGFSFSGNYYMCWVRQAPGKGLEWIGCLYTGSSGSTYYASWAKGRFTISKTSSTTVTLQMTSLTAADTATYFCARDLGYEIDGYGGLWGQGTLVTVSSGQPKAPSVFPLAPCCGDTPSSTVTLGCLVKGYLPEPVTVTWNSGTLTNGVRTFPSVRQSSGLYSLSSVVSVTSSSQPVTCNVAHPATNTKVDKTVAPSTCSKP light: AQVLTQTPSPVSAVVGGTVSISCQASQSVYNNNNLSWYQQKPGQPPKLLIYDASKLASGVPSRFKGSGSGTQFTLTISGVQCDDAATYYCLGGYYSSGWYFAFGGGTKVVVKRTPVAPTVLIFPPAADQVATGTVTIVCVANKYFPDVTVTWEVDGTTQTTGIENSKTPQNSADCTYNLSSTLTLTSTQYNSHKEYTCKVTQGTTSVVQSFNRGDC
–	–	85 pM	–	2.6e+06 M⁻¹ s⁻¹	0.00022 s⁻¹	6294 Fab: Fab fragment of mouse anti-CD45 antibody 6294 (antibody, V domains shown) VH: EVQLVESGAELARPGASVKMSCKASGYTFTSYTMHWVKQRPGQGLEWIGYINPSSGYTEYNQKFKDKTTLTADKSSSTAYLQLSSLTSEDSAVYYCARVGDGFYPSWLAYWGQGTLVTVSS VL: DIQMTQSPKFLLVSAGDRVTITCKASQSVRNDVAWYQQKPGQSPKLLIFYASKRYTGVPDRFTGSGYGTDFTFTISTVQAEDLAVYFCQQDYSSPTTFGGGTKLEIK

From patent publication US20230374148A1, “BINDING MOLECULES THAT MULTIMERISE CD45” (UCB BIOPHARMA SRL, priority 2020, published 2023)
